{
  "source": "patent US20040038297",
  "data": [
    {"target": "T1, complement factor C4, P0C0L4", "T1 chain": "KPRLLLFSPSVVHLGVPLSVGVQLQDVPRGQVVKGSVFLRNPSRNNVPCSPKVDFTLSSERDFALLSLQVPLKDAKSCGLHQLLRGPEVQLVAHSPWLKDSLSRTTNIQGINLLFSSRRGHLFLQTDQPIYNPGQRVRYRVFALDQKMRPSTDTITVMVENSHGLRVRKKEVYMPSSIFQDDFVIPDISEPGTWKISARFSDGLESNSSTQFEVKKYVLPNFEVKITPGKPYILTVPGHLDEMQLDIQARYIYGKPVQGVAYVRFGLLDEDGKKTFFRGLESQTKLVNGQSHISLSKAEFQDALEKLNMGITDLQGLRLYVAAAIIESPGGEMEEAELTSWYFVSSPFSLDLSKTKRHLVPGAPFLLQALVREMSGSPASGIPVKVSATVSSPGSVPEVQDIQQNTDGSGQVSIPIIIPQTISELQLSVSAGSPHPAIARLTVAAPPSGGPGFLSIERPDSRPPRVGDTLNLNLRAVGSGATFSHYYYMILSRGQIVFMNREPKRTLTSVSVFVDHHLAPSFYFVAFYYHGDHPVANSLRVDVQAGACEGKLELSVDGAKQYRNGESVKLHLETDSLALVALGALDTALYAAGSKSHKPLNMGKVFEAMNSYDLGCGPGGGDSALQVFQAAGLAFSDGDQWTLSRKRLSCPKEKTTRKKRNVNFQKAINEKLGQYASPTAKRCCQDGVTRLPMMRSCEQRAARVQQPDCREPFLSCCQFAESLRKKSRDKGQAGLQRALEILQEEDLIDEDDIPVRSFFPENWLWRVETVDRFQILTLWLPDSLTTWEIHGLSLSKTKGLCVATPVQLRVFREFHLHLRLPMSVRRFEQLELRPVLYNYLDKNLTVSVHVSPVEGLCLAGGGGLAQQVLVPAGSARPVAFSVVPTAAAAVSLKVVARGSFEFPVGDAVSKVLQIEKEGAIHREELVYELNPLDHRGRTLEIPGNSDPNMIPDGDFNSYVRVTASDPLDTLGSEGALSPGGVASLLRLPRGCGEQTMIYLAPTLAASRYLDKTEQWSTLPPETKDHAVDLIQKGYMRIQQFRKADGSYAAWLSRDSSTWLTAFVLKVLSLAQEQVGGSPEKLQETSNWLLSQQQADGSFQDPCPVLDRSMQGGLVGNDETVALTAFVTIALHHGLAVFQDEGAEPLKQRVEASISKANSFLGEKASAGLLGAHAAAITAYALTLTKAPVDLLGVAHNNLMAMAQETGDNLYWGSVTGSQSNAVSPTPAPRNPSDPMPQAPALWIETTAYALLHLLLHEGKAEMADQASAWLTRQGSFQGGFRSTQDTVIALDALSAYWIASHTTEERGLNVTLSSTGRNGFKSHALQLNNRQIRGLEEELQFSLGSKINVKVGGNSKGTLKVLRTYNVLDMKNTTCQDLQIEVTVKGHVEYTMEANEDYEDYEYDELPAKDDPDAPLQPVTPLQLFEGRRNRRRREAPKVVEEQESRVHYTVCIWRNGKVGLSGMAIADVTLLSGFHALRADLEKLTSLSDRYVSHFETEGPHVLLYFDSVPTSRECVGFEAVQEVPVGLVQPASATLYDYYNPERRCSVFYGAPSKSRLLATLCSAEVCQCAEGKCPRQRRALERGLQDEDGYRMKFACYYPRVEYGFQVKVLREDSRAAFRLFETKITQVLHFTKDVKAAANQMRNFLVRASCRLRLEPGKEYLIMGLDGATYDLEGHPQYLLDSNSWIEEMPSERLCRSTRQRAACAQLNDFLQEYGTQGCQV", "values": [
      {"protein": "C1s (protein) EPTMYGEILSPNYPQAYPSEVEKSWDIEVPEGYGIHLYFTHLDIELSENCAYDSVQIISGDTEEGRLCGQRSSNNPHSPIVEEFQVPYNKLQVIFKSDFSNEERFTGFAAYYVATDINECTDFVDVPCSHFCNNFIGGYFCSCPPEYFLHDDMKNCGVNCSGDVFTALIGEIASPNYPKPYPENSRCEYQIRLEKGFQVVVTLRREDFDVEAADSAGNCLDSLVFVAGDRQFGPYCGHGFPGPLNIETKSNALDIIFQTDLTGQKKGWKLRYHGDPMPCPKEDTPNSVWEPAKAKYVFRDVVQITCLDGFEVVEGRVGATSFYSTCQSNGKWSNSKLKCQPVDCGIPESIENGKVEDPESTLFGSVIRYTCEEPYYYMENGGGGEYHCAGNGSWVNEVLGPELPKCVPVCGVPREPFEEKQRIIGGSDADIKNFPWQVFFDNPWAGGALINEYWVLTAAHVVEGNREPTMYVGSTSVQTSRLAKSKMLTPEHVFIHPGWKLLEVPEGRTNFDNDIALVRLKDPVKMGPTVSPICLPGTSSDYNLMDGDLGLISGWGRTEKRDRAVRLKAARLPVAPLRKCKEVKVEKPTADAEAYVFTPNMICAGGEKGMDSCKGDSGGAFAVQDPNDKTKFYAAGLVSWGPQCGTYGLYTRVKNYVDWIMKTMQENSTPRED", "C4 deposition on a Western blot incubated with human serum (C4 converting activity)": "C4 deposition, which could be inhibited by enzyme inhibitors, was observed at a position corresponding to C1r and C1s, which are not separated by the technique employed"},
      {"protein": "MASP-1 (MBP-associated serine protease) (protein) HTVELNNMFGQIQSPGYPDSYPSDSEVTWNITVPDGFRIKLYFMHFNLESSYLCEYDYVKVETEDQVLATFCGRETTDTEQTPGQEVVLSPGSFMSITFRSDFSNEERFTGFDAHYMAVDVDECKEREDEELSCDHYCHNYIGGYYCSCRFGYILHTDNRTCRVECSDNLFTQRTGVITSPDFPNPYPKSSECLYTIELEEGFMVNLQFEDIFDIEDHPEVPCPYDYIKIKVGPKVLGPFCGEKAPEPISTQSHSVLILFHSDNSGENRGWRLSYRAAGNECPELQPPVHGKIEPSQAKYFFKDQVLVSCDTGYKVLKDNVEMDTFQIECLKDGTWSNKIPTCKIVDCRAPGELEHGLITFSTRNNLTTYKSEIKYSCQEPYYKMLNNNTGIYTCSAQGVWMNKVLGRSLPTCLPVCGLPKFSRKLMARIFNGRPAQKGTTPWIAMLSHLNGQPFCGGSLLGSSWIVTAAHCLHQSLDPEDPTLRDSDLLSPSDFKIILGKHWRLRSDENEQHLGVKHTTLHPQYDPNTFENDVALVELLESPVLNAFVMPICLPEGPQQEGAMVIVSGWGKQFLQRFPETLMEIEIPIVDHSTCQKAYAPLKKKVTRDMICAGEKEGGKDACAGDSGGPMVTLNRERGQWYLVGTVSWGDDCGKKDRYGVYSYIHHNKDWIQRVTGVRN", "C4 deposition on a Western blot incubated with human serum (C4 converting activity)": "no C4 deposition was observed at positions corresponding to MASP-1"},
      {"protein": "mannan-binding lectin associated serine protease-2 (MASP-2) (protein) TPLGPKWPEPVFGRLASPGFPGEYANDQERRWTLTAPPGYRLRLYFTHFDLELSHLCEYDFVKLSSGAKVLATLCGQESTDTERAPGKDTFYSLGSSLDITFRSDYSNEKPFTGFEAFYAAEDIDECQVAPGEAPTCDHHCHNHLGGFYCSCRAGYVLHRNKRTCSALCSGQVFTQRSGELSSPEYPRPYPKLSSCTYSISLEEGFSVILDFVESFDVETHPETLCPYDFLKIQTDREEHGPFCGKTLPHRIETKSNTVTITFVTDESGDHTGWKIHYTSTAHACPYPMAPPNGHVSPVQAKYILKDSFSIFCETGYELLQGHLPLKSFTAVCQKDGSWDRPMPACSIVDCGPPDDLPSGRVEYITGPGVTTYKAVIQYSCEETFYTMKVNDGKYVCEADGFWTSSKGEKSLPVCEPVCGLSARTTGGRIYGGQKAKPGDFPWQVLILGGTTAAGALLYDNWVLTAAHAVYEQKHDASALDIRMGTLKRLSPHYTQAWSEAVFIHEGYTHDAGFDNDIALIKLNNKVVINSNITPICLPRKEAESFMRTDDIGTASGWGLTQRGFLARNLMYVDIPIVDHQKCTAAYEKPPYPRGSVTANMLCAGLESGGKDSCRGDSGGALVFLDSETERWFVGGIVSWGSMNCGEAGQYGVYTKVINYIPWIENIISDF", "C4 deposition on a Western blot incubated with human serum (C4 converting activity)": "C4 was deposited at a position corresponding to the MASP-2 band"}
    ]}
  ]
}
